The DeepSol protein solubility set

Assay: soluble on expression in E. coli; label from the status in PepcDB or PDB records

**Q.** For “MGIGSKILENNIQKSISLGFYHSHSELRKSFYEFFKSKNHEILRSSSVIPDENDGTLLFTNAGMNQFKPLILSSTESRRVANIQKCIRAGGKHNDLDDVGKDLHHQTFFEMMGNWSFNDAFSKEEACRYAWEYLVEILGINADRLYVSYFGGIEKLGLPEDRECREIWKRIGVSSNRILPFVAENFWEMGAAGPCGPCTEIHYDRIGGRDASRLVNIDDSVVEIWNIVFMSSVRDSCGQIRHLGKNHIDTGMGFERLLSVVQNKTSNFDTDVFTPILEKTSELAKKQYTGSLDSRQDATFRLVADHIRAATVAISDGAVPDGTGCGFIVRKMMRRAFLQGISKLGIERYAMSELVPVVASTMKEVYPEIHDTSTHIRKIFNDEEAQFWKTVDKAKKMFDSVAAESKSPIISGRKAFNLFETHGLPLAVTVELARNIGREVDETEFERCRLEAQKVSQKASQFKLPISADDFPSHSDKEKYSYVFRNGKYEFPQVKTRILQVYKDQQKAESLEANDRGFLVLEECQFYGEQGGQTSDTGHLLIDGREVFEVENAKKIAGGAVTVLFGRALLPIRRDLRVEQKLDETRREGVMRAHSATHLLNWALQKLGVGSGQKGSSVDCDRFRFDYSTGDEDLSKEQRTELLIKCEMKMREFIQNGGFTEIIETSLEEAKKIENLQSDVKEDRIGGASVRVVALGSGADVPVECCSGTHIHDVRVIDDVAIMSDKSMGQRLRRIIVLTGKEAAACRNYTKSIYEDLRSTDPKERSKTGKNIDWKRVPIADQARISILLKQKK”, which “soluble on expression in E. coli” value is on record?
**A.** Its value is “not soluble”.

**Q.** For “MGSDKIHHHHHHMRSDVIKKGLERVPHRSLLKALGITDDEMRRPFIGIVSSWNEIIPGHVHLDKVVEAVKAGVRMAGGVPFVFPTIGICDGIAMDHRGMKFSLPSRELIADSIEIVASGFPFDGLVFVPNCDKITPGMMMAMGRLNIPSVLISGGPMLAGRYNGRDIDLITVFEAVGGYKVGKVDEETLKAIEDLACPGAGSCAGLFTANTMNSLAEALGIAPRGNGTVPAVHAKRLRMAKEAGMLVVELVKRDVKPRDIVTLDSFMNAVMVDLATGGSTNTVLHLKAIAESFGIDFDIKLFDELSRKIPHICNISPVGPYHIQDLDDAGGIYAVMKRLQENGLLKEDVMTIYLRKIGDLVREAKILNEDVIRPFDNPYHKEGGLGILFGNLAPEGAVAKLSGVPEKMMHHVGPAVVFEDGEEATKAILSGKIKKGDVVVIRYEGPKGGPGMREMLSPTSAIVGMGLAEDVALITDGRFSGGSHGAVIGHVSPEAAEGGPIGIVKDGDLIEIDFEKRTLNLLISDEEFERRMKEFTPLVKEVDSDYLRRYAFFVQSASKGAIFRKP”, which “soluble on expression in E. coli” value is on record?
**A.** Its value is “not soluble”.

**Q.** With “MGSDKIHHHHHHMTIHISTAPCCWGVDDVKNPYLPAWRDVLGEASEAGYRGVELGPYGYLPLDPAVVSAALGENRLHVVAGTVFDDLVTLTNLPSLLRQTHDICALLKQLPPIDKEPGQRFAGPYLVIIDWGHEERDYAAGHSELAQRLDDGAWQTMMEHIRAICQIAWHEYGIRPVIHPHAGGYIEFADELARLVDDIPDDVAGLCLDTGHLYYAGMDPAASLRTYADRLDYIHFKDIDQSVFDDVMKQRIKFFDACARGVMCPIGRGVIDYPSLYRLIQTLGYEGYITVEQERDPRNANGSLEDVRSSRTYLANVGF” as the sequence, how does the “soluble on expression in E. coli” value read?
**A.** Its value is “not soluble”.

**Q.** Which “soluble on expression in E. coli” value does the source give for “MKISRETLHQLIENKLCQAGLKREHAATVAEVLVYADARGIHSHGAVRVEYYAERISKGGTNREPEFRLEETGPCSAILHADNAAGQVAAKMGMEHAIKTAQQNGVAVVGISRMGHSGAISYFVQQAARAGFIGISMCQSDPMVVPFGGAEIYYGTNPLAFAAPGEGDEILTFDMATTVQAWGKVLDARSRNMSIPDTWAVDKNGVPTTDPFAVHALLPAAGPKGYGLMMMIDVLSGVLLGLPFGRQVSSMYDDLHAGRNLGQLHIVINPNFFSSSELFRQHLSQTMRELNAITPAPGFNQVYYPGQDQDIKQRKAAVEGIEIVDDIYQYLISDALYNTSYETKNPFAQLEHHHHHH” here?
**A.** Its value is “soluble”.

**Q.** For “MGSDKIHHHHHHMSVAEPNSHTQRNQPRPIRVGVIGVGNMGQHHTRVLSSMKDVELVGVSDINVERGLETASKYKVRFFEDYCDLLPHVEAVCIAVPTRLHYAVGINCLLAGIHVLIEKPIAASISEAESLVNAAAESQCILQVGHIERFNPAFRELSKVMKTEEVLALEAHRMSPYSDRANDVSVVLDLMIHDIDLLLELAASPVTKLTASGTRALDSGYLDYVTATLGFANGIVATLTASKVTHRKIRRIVAHCKNSFTEADFLKNEILIHRQTSASPVNDHRHYRQDGLIEKVYTTNIQPLSAELEHFVNCVHGGNQPSVGGEQALKALRLASLIEQMALEERVWNPLDWQSESRVQSLTQSV”, which “soluble on expression in E. coli” value is on record?
**A.** Its value is “not soluble”.

**Q.** For “MSLKAYKTDGTHFRAITRQTLLGADEDERALGHQTRYFEIAPGGYSSLERHQHTHTVMILRGQGELILGDALHRIGRHDCIYIAPQTFHQFHASGDEPLGFLCIVDRERDRPREGHHHHHH”, which “soluble on expression in E. coli” value is on record?
**A.** Its value is “not soluble”.

**Q.** With “MGSSHHHHHHSSGLVPRGSHMKNYARISCTSRYVPENCVTNHQLSEMMDTSDEWIHSRTGISERRIVTQENTSDLCHQVAKQLLEKSGKQASEIDFILVATVTPDFNMPSVACQVQGAIGATEAFAFDISAACSGFVYALSMAEKLVLSGRYQTGLVIGGETFSKMLDWTDRSTAVLFGDGAAGVLIEAAETPHFLNEKLQADGQRWAALTSGYTINESPFYQGHKQASKTLQMEGRSIFDFAIKDVSQNILSLVTDETVDYLLLHQANVRIIDKIARKTKISREKFLTNMDKYGNTSAASIPILLDEAVENGTLILGSQQRVVLTGFGGGLTWGSLLLTLEF” as the sequence, how does the “soluble on expression in E. coli” value read?
**A.** Its value is “soluble”.

**Q.** With “MAHHHHHHMQQQPRPVVAQYAYIELLPLRYTGPAPPPAPACMDPTPDEQYRRGVAEKRAALKQKEARRQMSSSGSGMLASLKSAVSQAVMTMEKGAADVSTRTESQVRQLEYQYDCDRFNLHFHELAENGEVLLADYRCSAMHSGLRVNGHVQITPHYLCFLAETTSSIAKTTDAVMGVFVAARHPTSANDEPRNRPVGIKQVIALADIVSIQPSVVLESI” as the sequence, how does the “soluble on expression in E. coli” value read?
**A.** Its value is “soluble”.

**Q.** For “MDPYQQGGRGGGFPARGGRGGGHGGGYPQEGYGAAAGGYGGYDPYNPYGAAGGYGMYPGQGYPPQEMTSPLDAEIQAVLREIHLEVTGLETSGDQFRNARRLLNSEKERLENNIDPEWLEVDVAKPVKVCKKILVPIYRHPNFNFIGKVLGPKGATLQTLCKTHKCHIYILGRGSTKDREKEAELLASGDPQHAHFSGPLHVKVETVAPAYIAYGRVAAVIEELSRILQPIHEDTTPAHLKNGSGDGEEKEDEEKKEGGEGGGRGGRGGRGGFRGGFRGGRGGFGGPGGPMGGRGGMGGMGGRGRGGQAAGFRPY”, which “soluble on expression in E. coli” value is on record?
**A.** Its value is “not soluble”.

**Q.** Which “soluble on expression in E. coli” value does the source give for “EMYHHKKVLVLGLARSGVSAATIMHKLGAFVTVNDQKPFSENPEAQGLLEQGIKVICGSHPIELLDEGFELVIKNPGIPYNNPMIEKALKLKIPVI” here?
**A.** The value was “not soluble”.

**Q.** For “MNKHSGIDFKQLNFLTKLNENHSGELWKGRWQGNDIVVKVLKVRDWSTRKSRDFNEECPRLRIFSHPNVLPVLGACQSPPAPHPTLITHWMPYGSLYNVLHEGTNFVVDQSQAVKFALDMARGMAFLHTLEPLIPRHALNSRSVMIDEDMTARISMADVKFSFQSPGRMYAPAWVAPEALQKKPEDTNRRSADMWSFAVLLWELVTREVPFADLSNMEIGMKVALEGLRPTIPPGISPHVSKLMKICMNEDPAKRPKFDMIVPILEKMQDK”, which “soluble on expression in E. coli” value is on record?
**A.** The value was “soluble”.

**Q.** Which “soluble on expression in E. coli” value does the source give for “MSSLRRKWISDPAFKVFKKVLPPLSSTEKEAMEAGSVWWDAELFSGKPNFTTLHHYPAPTLTAEEQAFMDNELETLLDMLDDQKIVKEDRDLPPEVWEYLRKERFFSLIISKEYGGREFSALANSTIVSRIATRSISVAVSVMVPNSLGPGELLSHYGTQEQKDYWLPRLADGTDIPCFALTGPEAGSDAGGIPDQGVVCYGMYDGEEVLGVRVSWNKR” here?
**A.** The value was “not soluble”.

**Q.** With “AIAGELTDALLGKGALKTRFGSLLGQGDWGGVRVSQVEVRWVIFCLLHWLHVNLPVTEYLALDVLFPLAIVQKHSIL” as the sequence, how does the “soluble on expression in E. coli” value read?
**A.** The value was “soluble”.

**Q.** Which “soluble on expression in E. coli” value does the source give for “GMIYSKVENFINENKQNAIFTEGASHENIGRIEENLQCDLPNSYKWFLEKYGAGGLFGVLVLGYNFDHASVVNRTNEYKEHYGLTDGLVVIEDVDYFAYCLDTNKMKDGECPVVEWDRVIGYQDTVADSFIEFFYNKIQEAKDDWDEDEDWDD” here?
**A.** Its value is “soluble”.

**Q.** Which “soluble on expression in E. coli” value does the source give for “QLPTIYAITPTYSRPVQKAELTRLANTFRQVAQLHWILVEDAAARSELVSRFLARAGLPSTHLHVPTPRRYKRPGLPRATEQRNAGLAWLRQRHQHQRAQPGVLFFADDDNTYSLELFQEMRTTRKVSVWPVGLVGGRRYERPLVENGKVVGWYTGWRADRPFAIDMAGFAVSLQVILSNPKAVFKRRGSQPGMQESDFLKQITTVEELEPKANNCTKVLVWHTRTEKVNLANEPKYHLDTVKIEV” here?
**A.** Its value is “soluble”.

**Q.** With “MGHHHHHHSHMIQYIPQRPPIVMISTLVSAEKNVTETELEIPAHGLFVKDGVLHEPGLIENVAQTAAAGVGYACTLTSQPVPVGFIGAVKNLEIDYLPKVGDVLETRVEVLEEIFDMTLIKGESFVKGKRVLTCEMKIVLKK” as the sequence, how does the “soluble on expression in E. coli” value read?
**A.** The value was “not soluble”.

**Q.** With “MGSDKIHHHHHHMLLTLSICNFRSFGTEATLDLQRRGFRTQHPRKDETWQENTWRRAAIFGANAAGKSNVLRALGQLKLAITHSLTNEHWVRELRDPHSLCTDEPTSFEVEYVFDDVRYRWGLTLNHSGVVEEFLEANLSSRWRRIFERTGNSLIFGSNTGISHAAKENIEQFMRPWALVFSAWNTVKTPGPFAGALQWWQTLLPVIMSNEADQHNRHQWLVQLAQKDPTWLSVLQNVVAVADVGINKIGIEEQAPDLVKKIELTIQPDGQAEITDQFDSDEITEYLRYLMFEHSDGIHTFSLPETQESQGTKAWMDLAIPALFALSVGGVLSIDEIDGSLHPLLVRELVSYFDNSELNPLGAQLLFSTHDLTLLGKYPAESLHRGEVWLVEKERSYSELIALDEFPIRDAHNIEKRYLQGTYGAVPISNTTELLHTLEVLREKYTKMKQQ” as the sequence, how does the “soluble on expression in E. coli” value read?
**A.** The value was “not soluble”.

**Q.** Which “soluble on expression in E. coli” value does the source give for “MGSDKIHHHHHHMGARLKHYGWGREGEGMNEAEQAFVLGRYKAKFGRDSFDTVEVAHLDDIKLREPRIVPPKSLSEICAVDVYHRAAHAYGKSYPDYVRGMLGDYDAAPDVVAYPRDEAEIAAVMDWAGGAGAALTPFGGGSSVCGGVECRVDGNRHKAAVTLDLRHLGKVLEVDATSRAALIQGGAYGPALEAQLKPHNVTLRHFPQSFEYSTLGGWIATRSGGHYASLYTHIDDFVESVRVVTPRGVLETRRLPGSGAGPSPDRMFIGSEGILGVISAAWMRLQSRPRFRAGASVRFPSFFAAARAVRAVAQAGLYPSNCRILDPQEAYNTGAADGSVAIMVLAFESGDHPVEPWMARALECCADHGGIREEAEASSGHLEGAAGLWRNAFIRMPYAREFLTPAGLINDTFETSITWERFESFHDSVKTVTEQAILDATGIKGEVTCRFTHVYPDGPAPYFSFHALGRHGELLEQWQAIKDAASDALIAAGGTITHHHAVGRDHRKWYDRQRPDLFAVALRAAKRELDPQAMLNPGVLIDP” here?
**A.** Its value is “not soluble”.

**Q.** Which “soluble on expression in E. coli” value does the source give for “MGSDKIHHHHHHMTYPVVLVNVSRNTNAISFPMGLSVVANALLHHDITPQIIDLIPVMPDQRIDYFLRTMPKEPAIYGFSMMIGNFHLDHAEHYARLIKEHSPDSIVVYGGSLPSSVPELLVENCECDFVIHGEGEVVFPAFVKALREGESFPEGPGIFYKGADGQVVGTKAKRMRRLDHLSRQNYSLFDMDFYSGYFKEVGLSWEIMASRGCKAHCSFCYKFMGDGIGLREVGEVLDEIQYIMENYGITKFYFVDENFMQIKKYFYSFLEEKKNRGLNFTFIASSRIDEIDEERISIAKEHGLTALTTGVESVNQATLNAIDKRIDIEDAERAVKLLRQYGIRPHVNLIIGFEWESEDDYKAMLEFIERNDLRGTVKLSYLTPLPATRLYEDAKSRNKLGKPEFEYVRTLGNLYWELMVNMTNMPDELLKHYYALISDVGKETRALPVTPAYRQNLNDDLVMYKTVAAPSPPPAHAAWSLP” here?
**A.** Its value is “not soluble”.

**Q.** Which “soluble on expression in E. coli” value does the source give for “MILLIDNYDSFTFNLEQYLAEFSEVVVKRNDAADLIKIAALADGIVLSPGPGKPSDAGLLEEVVAKFAKEKPLLGICLGHQAIGEVFGGEVKRAAKIRHGKVSTMRQTAGAIFANLPEEMPVMRYHSLIVDKNTLPDVLEVLAIATDDSEVMAMKVKDYPVYGLQFHPESIGTNDGKQMMENFIHIVEGARENGNLTTKSI” here?
**A.** Its value is “not soluble”.
